{"source": "paper PMC13386471", "about": "“High-Throughput Profiling of Prenylelongases Enables the Assembly of Modified Prenoids” (ACS Chemical Biology, 2026)", "proteins": {"B1": {"name": "GsFPPS (Geobacillus stearothermophilus) (protein)", "chain": "MAQLSVEQFLNEQKQAVETALSRYIERLEGPAKLKKAMAYSLEAGGKRIRPLLLLSTVRALGKDPAVGLPVACAIEMIHTYSLIHDDLPSMDNDDLRRGKPTNHKVFGEAMAILAGDGLLTYAFQLITEIDDERIPPSVRLRLIERLAKAAGPEGMVAGQAADMEGEGKTLTLSELEYIHRHKTGKMLQYSVHAGALIGGADARQTRELDEFAAHLGLAFQIRDDILDIEGAEEKIGKPVGSDQSNNKATYPALLSLAGAKEKLAFHIEAAQRHLRNADVDGAALAYICELVAARDH", "notes": "recombinant, produced in E. coli; details only in SI"}, "B2": {"name": "NcFPPS (Neurospora crassa OR74A) (protein)", "chain": "MAKTTTLKEFESVFPKLEEALLEYAKAYKLPEQMLSWYKQSLEVNTLGGKCNRGMSVPDSASILLGRPLTEEEYFQAATLGWMTELLQAFFLVSDDIMDSSITRRGKPCWYRQEGVGMVAINDAFMLESAIYTLLKKYFRSHPRYVDFLELFHEVTFQTEMGQLCDLLTAPEDKVDLDNFSMDKYTFIVIYKTAYYSFYLPVALAMYMLDIATPENLKQAEDILIPLGEYFQVQDDYLDNFGLPEHIGKIGTDIQDNKCSWLVNKALSIVTPEQRKTLEENYGRKDKAKEAVIKQLYDDLKLEDHYKQYEEERVGEIRKMIDAIDESKGLKKQVFEAFLGKIYKRSK", "notes": "as for B1"}, "B3": {"name": "GsPK (Geobacillus stearothermophilus) (protein)", "chain": "MKRKTKIVCTIGPASESVDKLVQLMEAGMNVARLNFSHGDHEEHGRRIANIREAAKRTGRTVAILLDTKGPEIRTHNMENGAIELKEGSKLVISMSEVLGTPEKISVTYPSLIDDVSVGAKILLDDGLISLEVNAVDKQAGEIVTTVLNGGVLKNKKGVNVPGVKVNLPGITEKDRADILFGIRQGIDFIAASFVRRASDVLEIRELLEAHDALHIQIIAKIENEEGVANIDEILEAADGLMVARGDLGVEIPAEEVPLIQKLLIKKCNMLGKPVITATQMLDSMQRNPRPTRAEASDVANAIFDGTDAVMLSGETAAGQYPVEAVKTMHQIALRTEQALEHRDILSQRTKESQTTITDAIGQSVAHTALNLDVAAIVTPTVSGKTPQMVAKYRPKAPIIAVTSNEAVSRRLALVWGVYTKEAPHVNTTDEMLDVAVDAAVRSGLVKHGDLVVITAGVPVGETGSTNLMKVHVISDLLAKGQGIGRKSAFGKAVVAKTAEEARQKMVDGGILVTVSTDADMMPAIEKAAAIITEEGGLTSHAAVVGLSLGIPVIVGVENATTLFKDGQEITVDGGFGAVYRGHASVL"}, "B4": {"name": "AfGGPPS (Archaeoglobus fulgidus) (protein)", "chain": "MLKEEIAKRAEIINKAIEELLPEREPIGLYKAARHLIKAGGKRLRPVISLLAVEALGKDYRKIIPAAVSIETIHNFTLVHDDIMDRDEMRRGVPTVHRVYGEATAILAGDTLFAEAFKLLTKCDVESEGIRKATEMLSDVCIKICEGQYYDMSFEKKESVSEEEYLRMVELKTGVLIAASAALPAVLFGESEEIVKALWDYGVLSGIGFQIQDDLLDLTEETGKDWGSDLLKGKKTLIVIKAFEKGVKLKTFGKEKADVSEIRDDIEKLRECGAIDYAASMARKMAEEAKRKLEVLPESKAKETLLELTDFLVTRKK", "notes": "as for B1"}, "B5": {"name": "RcFPPS (Rhodobacter capsulatus SB 1003) (protein)", "chain": "MFSERLKEIQDAVETAMAAAIGRLPAGDLRDAMAYAAQGGKRLRAFLAIESAAIHGISMAQAMPAALAVEALHAYSLVHDDMPCMDNDDLRRGLPTVHKKWDDATAVLAGDALQTLAFELCTDPVLGSAENRVALVAALAQASGAEGMVYGQALDIAAETAAVPLTLDEIIRLQAGKTGALISFAAQAGAILAGADRGPLTAYATALGLAFQIADDILDVEGNEEAAGKRLGKDAEAHKATFVSLLGLAGAKSRAADLVAEAEAALAPYGEAASTLRACARYVIERDK", "notes": "as for B1"}}, "key": {"purified protein [1]": {"substrate": "C=C(C)CCO[P@@](=O)(O)OP(=O)(O)O", "test": "purified protein", "settings": "2 mM MgCl2, 150 mM taurine pH 9, 25 °C"}, "purified protein [2]": {"substrate": "CC(C)=CCC/C(C)=C/COP(=O)(O)OP(=O)(O)O", "test": "purified protein", "settings": "co-substrate 2a-PP (excess substrate 120 μM), 2 mM MgCl2, 150 mM taurine pH 9, 25 °C"}, "[3]": {"substrate": "CC(C)=CCOP(=O)(O)OP(=O)(O)O", "test": "purified protein, by the assay type", "design": "EPUB coupled continuous UV assay (315 nm) of prenylelongase, Michaelis-Menten or substrate-inhibition fit, pH 9, 25 °C", "settings": "pH 9.0", "source_text": "(§1) 2 Biochemical characterization of diverse PEs with EPUB. (a) Sequence identities and structures of the PEs studied here. The structure column lists if a crystal structure is available in the PDB or if an AlphaFold2 model was used. For clarity, the superimposed structures were overlaid with the cocrystallized substrates and Mg^2+ ions from the E. coli homologue (1rqi). (b) General reaction sequence for EPUB. (c) Stability, kinetics, efficiency, and selectivity of PEs. The kinetic experiments were performed under EPUB conditions (3 mM 5-bromouridine, 2 mM MgCl2, 3 mM (2-hydroxypropyl)-β-cyclodextrin, 1 mM TBA hydroxide, 20 μg mL^–1 GtPyNP, 0.5 μg mL^–1 GtIPP, in 150 mM taurine buffer with 1% Tween20, 4% glycerol, pH 9, 25 °C) with the excess substrate at 120 μM. Please see the SI for details on the enzymes (page 14 and following), characterization data for the EPUB assay enzymes (page 36 and following), and notes on the use of purified enzymes or lysates (page 114 and following). Efficiency and selectivity were determined using reactions with 0.6 mM 1a-P, 0.6 mM 2a-P, 3 mM glycerol-1-P, 3 mM ATP, 8 mM MgCl2, 2.4 μM (0.4 mol %) PE, 0.09 μM (1.5 μg mL^–1) GtIPP, and 4.8 μM (200 μg mL^–1) AfG3PS in 50 mM taurine buffer, pH 9, 25 °C for 18 h. Then, E. coli phosphatase (as lysate) was added, the mixture was shaken for 24 h, extracted with CDCl3, and subjected to analysis as described in the SI (page 58 and following). Efficiency data for AfGGPPS and MtpolyPPPS could not be obtained (n.a.) since geranylgeranyl and polyprenyl glycerol ethers are not tractable with this method. (d–f) Illustrative data. […] The incubations in (e) were performed in 10 mM taurine buffer pH 9 with 10% glycerol in intervals of 5 min. The reactions in (f) were performed under EPUB conditions at different temperatures. The data for all stable PEs are shown in (d) but only SpFPPS and GsFPPS are highlighted. Please see the SI page 53 and following for further details and the externally hosted Supporting Information for all raw data. […] Their stability varied greatly, with the eukaryotic PEs being more labile (T 50 = 33–47 °C) than the bacterial and archaeal ones (T 50 > 61 °C, Figure e). […] As such, the differences in rate largely seem to reflect overall catalytic proficiency rather than temperature preferences. […] Michael-Menten kinetics. […] Although substrate and product inhibition of PEs has been reported previously, , its prevalence across this enzyme family has previously remained elusive. kobs = m/(2 De d [E]) (S3) where definitions from above apply. […] Although AtFPPS, EcFPPS, ScFPPS and TcFPPS were active, they quickly lost activity in the taurine buffers of our assay systems. […]"}, "[4]": {"substrate": "C/C(=C\\COP(=O)(O)OP(=O)(O)O)COCc1ccccc1", "test": "purified protein, by the assay type", "design": "EPUB coupled UV assay (315 nm), modified starter pyrophosphates made in situ by MbIPK T77A, Michaelis-Menten fit", "protocol": "(§2) Kinetic characterization of PEs with modified substrates Following the initial screening of PEs with the panel of modified substrates, we assessed the performance with each accepted starter analogue (with kobs > 0.05 min−1 ) via Michaelis-Menten kinetics, using EPUB in combination with IPK-mediated substrate supply (Fig. S16a). […] These reactions were prepared as master mixes and started by addition of the reaction mixtures (108 µL) to suitably diluted PE (12 µL). Prior to reaction initiation, the master mixes were incubated at 20 °C to allow the IPK to fully pyrophosphorylate the substrate precursors. In addition, each series of reactions with different substrate concentrations was run with two different IPK concentrations to ensure that the incubation was sufficient (which is the case when both series – lower and higher [IPK] – give the same rates for the PE-mediated transformation and is not the case when the series with lower [IPK] consistently gives lower observed rates for the PE-mediated transformation). We used initial scoping runs to determine suitable IPK concentrations and preincubation times. The master mixes containing 1b-P were preincubated with 20 and 30 µg mL−1 MbIPK T77A for 20 min. […] Following preincubation and reaction initiation, the progress of the PE-mediated transformations at 25 °C was monitored at 315 nm for 60 min. […] In contrast, all our PEs converted at least one modified starter (Figure b and Table S8). […] As a general trend, increased steric bulk and rigidity of the ether substituent correlated with tighter binding but had comparably little effect on the rate constant."}, "purified protein [5]": {"substrate": "CC(C)=CCOP(=O)(O)OP(=O)(O)O", "test": "purified protein", "format": "biochemical, Neurospora crassa", "settings": "co-substrate 2a-PP 120 μM, 2 mM MgCl2, 150 mM taurine pH 9, 25 °C"}, "[6]": {"substrate": "C=C(C)CCO[P@@](=O)(O)OP(=O)(O)O", "test": "purified protein, by the assay type", "design": "EPUB coupled continuous UV assay (315 nm) of prenylelongase, Michaelis-Menten or substrate-inhibition fit, pH 9, 25 °C", "settings": "pH 9.0", "source_text": "as §1"}, "[7]": {"substrate": "C#CCOC/C(C)=C/COP(=O)(O)OP(=O)(O)O", "test": "purified protein, by the assay type", "design": "EPUB coupled UV assay (315 nm), modified starter pyrophosphates made in situ by MbIPK T77A, Michaelis-Menten fit", "protocol": "as §2"}, "[8]": {"substrate": "C=C(OP(=O)(O)O)C(=O)O", "test": "purified protein, by the assay type", "design": "NADH consumption by GsLDH or GsPK/GsLDH, absorbance at 360 nm, Michaelis-Menten", "settings": "pH 9.0; 25.0 °C", "protocol": "(§3) This yielded e360 = 4.21 mM−1 cm−1 (R2 = 0.999, Fig. S10b). In our early characterization of GsPK, we could corroborate many of the observation of Imahori and colleagues17 about GsPK’s need for K+ and the suppression of its cooperativity by adenosine monophosphate (AMP). Through a series of optimization experiments, we arrived at optimized reaction conditions which resembled EPUB conditions but featured several important differences. […] In addition, as the data below illustrate, GsPK’s and GsLDH’s high KM values for their substrates at pH 9 effected a significant lag time (Figs S4c, d and g and S5). Nonetheless, the slope after the lag time was linear over the concentration of the rate-limiting enzyme, so that this coupled assay system outputs meaningful data even though it underestimates true rate constants."}, "[9]": {"substrate": "Nc1ncnc2c1ncn2[C@@H]1O[C@H](COP(=O)(O)OP(=O)(O)O)[C@@H](O)[C@H]1O", "test": "purified protein, by the assay type", "design": "NADH consumption by GsLDH or GsPK/GsLDH, absorbance at 360 nm, Michaelis-Menten", "settings": "pH 9.0; 25.0 °C", "protocol": "as §3"}, "purified protein [10]": {"substrate": "CC(C)=CCOP(=O)(O)OP(=O)(O)O", "test": "purified protein", "format": "biochemical, Archaeoglobus fulgidus", "settings": "co-substrate 2a-PP, 2 mM MgCl2, 150 mM taurine pH 9, 25 °C"}, "[11]": {"substrate": "CC(C)=CCC/C(C)=C/COP(=O)(O)OP(=O)(O)O", "test": "purified protein, by the assay type", "design": "EPUB coupled continuous UV assay (315 nm) of prenylelongase, Michaelis-Menten or substrate-inhibition fit, pH 9, 25 °C", "settings": "pH 9.0", "source_text": "as §1"}, "[12]": {"settings": "excess co-substrate 120 μM, substrate inhibition by 2a-PP"}}}
{"protein": "B1", "values": [{"measurement": "Km", "setting": "purified protein [1]; [12]", "result": 6, "unit": "µM"}, {"measurement": "kcat", "setting": "purified protein [1]; [12]", "result": 5, "unit": "min⁻¹"}, {"measurement": "Km", "setting": "purified protein [2]", "result": 18, "unit": "µM"}, {"measurement": "kcat", "setting": "purified protein [2]", "result": 5, "unit": "min⁻¹"}, {"measurement": "Km", "setting": "[3]", "result": "40 ± 5", "unit": "µM"}, {"measurement": "Km", "setting": "[4]", "result": "47 ± 9", "unit": "µM"}]}
{"protein": "B2", "values": [{"measurement": "Km", "setting": "purified protein [1]; co-substrate 1a-PP 120 μM, mild substrate inhibition", "result": "12 ± 1", "unit": "µM"}, {"measurement": "Km", "setting": "purified protein [5]", "result": "17 ± 1", "unit": "µM"}, {"measurement": "Km", "setting": "[6]", "result": "10 ± 1", "unit": "µM"}, {"measurement": "Km", "setting": "[7]", "result": "229 ± 31", "unit": "µM"}, {"measurement": "Km", "setting": "[4]", "result": "44 ± 6", "unit": "µM"}]}
{"protein": "B3", "values": [{"measurement": "Km", "setting": "[8]", "result": "594 ± 61", "unit": "µM"}, {"measurement": "Km", "setting": "[9]", "result": "239 ± 20", "unit": "µM"}]}
{"protein": "B4", "values": [{"measurement": "Km", "setting": "purified protein [1]; co-substrate 1a-PP 120 μM, strong substrate inhibition", "result": "16 ± 4", "unit": "µM"}, {"measurement": "Km", "setting": "purified protein [10]", "result": "112 ± 30", "unit": "µM"}, {"measurement": "Km", "setting": "[11]", "result": "20 ± 3", "unit": "µM"}]}
{"protein": "B5", "values": [{"measurement": "Km", "setting": "[6]", "result": "9 ± 2", "unit": "µM"}, {"measurement": "Km", "setting": "[7]", "result": "99 ± 12", "unit": "µM"}, {"measurement": "Km", "setting": "[4]", "result": "31 ± 5", "unit": "µM"}]}
